Article PMC3888415
Like-named read-outs stand apart in the source and are kept apart here.

Assays:
human α-thrombin (human) [1] = experiment: discontinuous thrombin inhibition assay (second order rate constant k2); pseudo first order conditions; purified API proteins and thrombin; mean ± SD of 5 determinations
human α-thrombin (human) [2] = experiment: ELISA; thrombin capture assay: thrombin (5 µg/ml) coated on microtiter wells in PBS; cleared bacterial lysates applied neat for one hour; detected with HRP-conjugated sheep anti-human API; OD 450 nm, for P7–P3 variants normalized to API M358R lysate
human α-thrombin (human) [3] = experiment: as above; remark: listed apart in the source

Row | Substance | k2 (second order rate constant of thrombin inhibition) (mol^−1 sec^−1) (human α-thrombin (human) [1]) | relative OD450 versus API M358R (human α-thrombin (human) [2]) | relative OD450 versus API M358R (human α-thrombin (human) [3])
1 | API M358R P7–P3 variant AAFVS (from UniProt P01009 25-418) | 1.01e+06 | 3.01 | –
2 | API M358R P7–P3 variant DAFAA (from UniProt P01009 25-418) | – | 1.59 | –
3 | API M358R P7–P3 variant DITMA (from UniProt P01009 25-418) | 1e+06 | 1.64 | 1.7
4 | API M358R P7–P3 variant DLTVS (plaque consensus) (from UniProt P01009 25-418) | 529000 | – | –
5 | API M358R P7–P3 variant DVTVS (from UniProt P01009 25-418) | – | 1.42 | –
6 | API M358R P7–P3 variant EAHFR (from UniProt P01009 25-418) | – | 1.51 | –
7 | API M358R P7–P3 variant EATVS (from UniProt P01009 25-418) | 617000 | 1.54 | –
8 | API M358R P7–P3 variant EISLQ (from UniProt P01009 25-418) | 783000 | 2.61 | –
9 | API M358R P7–P3 variant FHTLG (from UniProt P01009 25-418) | – | 2.13 | –
10 | API M358R P7–P3 variant HATVS (from UniProt P01009 25-418) | 504000 | 1.99 | –
11 | API M358R P7–P3 variant ISSAN (from UniProt P01009 25-418) | – | 1.46 | –
12 | API M358R P7–P3 variant LAITS (from UniProt P01009 25-418) | – | 1.45 | –
13 | API M358R P7–P3 variant LASMR (from UniProt P01009 25-418) | 895000 | 1.89 | –
14 | API M358R P7–P3 variant LATVS (lysate consensus) (from UniProt P01009 25-418) | 765000 | – | 1.5
15 | API M358R P7–P3 variant LHTLG (from UniProt P01009 25-418) | 786000 | – | 2.1
16 | API M358R P7–P3 variant LINPI (from UniProt P01009 25-418) | – | 1.54 | –
17 | API M358R P7–P3 variant LSELA (from UniProt P01009 25-418) | – | 1.28 | –
18 | API M358R P7–P3 variant LTTLR (from UniProt P01009 25-418) | 896000 | 2.09 | –
19 | API M358R P7–P3 variant NLIPT (from UniProt P01009 25-418) | 176000 | – | –
20 | API M358R P7–P3 variant QATFL (from UniProt P01009 25-418) | 593000 | 1.91 | –
21 | API M358R P7–P3 variant QVKPA (from UniProt P01009 25-418) | – | 1.37 | –
22 | API M358R P7–P3 variant TLSAV (from UniProt P01009 25-418) | – | 1.36 | –
23 | API M358R P7–P3 variant TVSVS (from UniProt P01009 25-418) | – | 1.49 | –
24 | API M358R P7–P3 variant VTTIT (from UniProt P01009 25-418) | – | 1.9 | –
25 | recombinant hexahistidine-tagged API M358R (from UniProt P01009 25-418) (natural protein) | 487000 | – | –
